The record followed here is article PMC7460833, “Exploring the Role of Phenylalanine Residues in Modulating the Flexibility and Topography of the Active Site in the Peroxygenase Variant PaDa-I” (International Journal of Molecular Sciences, 2020).

Numbering of substitutions follows the chain as printed. Numbers in names are those of the source.

Substrate in this data set: O=[N+]([O-])c1ccc2c(c1)OCO2
The data set is described as follows: purified protein. Type of data set: biochemical, Cyclocybe aegerita. The note with it: H2O2 1 mM, potassium phosphate 50 mM pH 7.0, 20% v/v acetonitrile.

B1: PaDa-I (AaeUPO variant) (Cyclocybe aegerita; F119A/F354L/I291V/L110F/V100A/V118I) (protein)
chain: EPGLPPGPLENSSAKLVNDEAHPWKPLRPGDIRGPCPGLNTLASHGYLPRNGVATPAQIINAVQEGFNFDNQAAIAATYAAHLVDGNLITDLLSIGRKTRLTGPDPPPPASVGGLNEHGTFEGDASMTRGDAFFGNNHDFNETLFEQLVDYSNRFGGGKYNLTVAGELRFKRIQDSIATNPNFSFVDFRFFTAYGETTFPANLFVDGRRDDGQLDMDAARSFFQFSRMPDDFFRAPSPRSGTGVEVVVQAHPMQPGRNVGKINSYTVDPTSSDFSTPCLMYEKFVNITVKSLYPNPTVQLRKALNTNLDFLFQGVAAGCTQVFPYGRD
notes: laboratory-evolved secreted variant; plasmid pJRoC30-PaDa-I in Saccharomyces cerevisiae BJ5465, purified; only F311L given; recalled mature changes V57A/L67F/V75I/I248V/F311L (plus signal peptide F12Y/A14V/R15G/A21D); heme-thiolate, N-glycosylated
With B1, the Michaelis constant (Km) amounted to 1386 ± 176 µM, the kcat is 356 ± 30 s⁻¹ and the kcat/Km amounted to 257000 M⁻¹ s⁻¹.

B2: PaDa-I (AaeUPO variant) (Cyclocybe aegerita; F119L/F354L/I291V/L110F/V100A/V118I) (protein)
chain: B1 chain with A76L
notes: as for B1
Consider B2, for which the Michaelis-Menten constant (Km) worked out at 890 ± 81 µM, the turnover number (kcat) worked out at 454 ± 22 s⁻¹ and the specificity constant (kcat/Km) was 510000 M⁻¹ s⁻¹.

B3: PaDa-I (AaeUPO variant) (Cyclocybe aegerita; F119L/F234A/F354L/I291V/L110F/V100A/V118I) (protein)
chain: B1 chain with A76L, F191A
notes: as for B1
On to B3, for which the Michaelis-Menten constant (Km) is 1552 ± 155 µM, the kcat was found to be 332 ± 33 s⁻¹ and the specificity constant (kcat/Km) came to 214000 M⁻¹ s⁻¹.

B4: PaDa-I (AaeUPO variant) (Cyclocybe aegerita; F234A/F354L/I291V/L110F/V100A/V118I) (protein)
chain: B1 chain with A76F, F191A
notes: as for B1
For B4, the Michaelis-Menten constant (Km) was 525 ± 73 µM, the kcat turned out to be 279 ± 18 s⁻¹ and the kcat/Km came out at 531000 M⁻¹ s⁻¹.

B5: PaDa-I (AaeUPO variant) (Cyclocybe aegerita; F119A/F234A/F354L/I291V/L110F/V100A/V118I) (protein)
chain: B1 chain with F191A
notes: as for B1
For B5, the Km worked out at 1389 ± 119 µM, the turnover number (kcat) was determined as 258 ± 15 s⁻¹ and the kcat/Km came out at 186000 M⁻¹ s⁻¹.
